{"source": "paper PMC12463490", "biological_target": "T1, rCCN2 (cellular communication network factor 2) (UniProt P29279)", "T1 sequence": "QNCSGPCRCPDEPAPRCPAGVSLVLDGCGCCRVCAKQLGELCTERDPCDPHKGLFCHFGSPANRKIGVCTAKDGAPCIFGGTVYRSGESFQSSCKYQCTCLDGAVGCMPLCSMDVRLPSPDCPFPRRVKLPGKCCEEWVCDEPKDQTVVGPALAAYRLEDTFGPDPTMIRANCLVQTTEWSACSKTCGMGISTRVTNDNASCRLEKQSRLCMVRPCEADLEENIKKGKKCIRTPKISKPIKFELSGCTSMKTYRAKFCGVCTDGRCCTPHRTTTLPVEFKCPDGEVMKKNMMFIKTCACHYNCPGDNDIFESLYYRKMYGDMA", "experiment": "EMSA", "conditions": "20 mM HEPES (pH not stated), 45 mM KCl, 10 mM NaCl, 1 mM DTT, 0.1% NP-40, 10% glycerol, 4 C overnight; 4% polyacrylamide gel in TBE"}
{"sequence": "GCACACATGCTTCCTGTGGTGACTGGGCGCTTCCTGTTTTCTCAGGCACCGGCCTTGCTGCTGCCGATGTGGAAACAGGGGCAGCTGCAGCCAGGGCGGCTCCAGGCTGGGCACTCTGACCCTGCCCAGAAGGGAGTGAGGGGGCCCACCACCCTTAGACTTACGATCTAGACAGTGGGT (double strand) [Spi1 proximal promoter probe (178 bp)]", "values": [{"measurement": "binding", "value": "binds"}]}
